Results reported in US20050287608A1.

Target: ubiquitinated proteins of yeast cells
Experiment: Flag purification from yeast cells, anti-Ub immunoblot

Row | Substance | reduction in the amount of ubiquitinated protein recovered, against Flag-Rad23 [%] | interaction remaining, compared to the wildtype protein [%]
1 | Flag-rad23^uba1 (yeast Rad23 L183A, amino-terminal Flag epitope) (from UniProt P32628 1-398) | 80 | 
2 | Flag-rad23^Δuba1 (yeast Rad23 with residues 141-190 removed, amino-terminal Flag epitope) (from UniProt P32628 1-140; P32628 191-398) |  | 1
